Data published in patent US20120213785A1.

Key:
[1] = molecular target: Notch3-LD/Fc fusion protein (human Notch3 LIN12/dimerization domain fused to human gamma 1 Fc) (human) [IgG part: P01857]; experiment: ELISA on Notch3-LD/Fc
[2] = molecular target: human Notch3 receptor, full-length (human) (UniProt Q9UM47); experiment: FACS on Sup-T1 cells naturally expressing Notch3
[3] = molecular target: human Notch3 receptor, full-length (human) (UniProt Q9UM47); experiment: FACS on 293T cells expressing Notch3 (Notch3/Hyg)
[4] = molecular target: Notch3-LD/Fc fusion protein (human Notch3 LIN12/dimerization domain fused to human gamma 1 Fc) (human) [IgG part: P01857]; experiment: ELISA, plate coated with Notch3-LD/Fc, hybridoma supernatant
Notch3-D1/Fc (human) = Notch3-D1/Fc (human) (UniProt Q9UM47); experiment: ELISA on Notch3-domain/Fc fusion proteins
Notch3-D2/Fc (human) = Notch3-D2/Fc (human) (UniProt Q9UM47); experiment: ELISA on Notch3-domain/Fc fusion proteins

Sequence of human Notch3 receptor, full-length (human) (Q9UM47 40-2321 A2223V limits assumed): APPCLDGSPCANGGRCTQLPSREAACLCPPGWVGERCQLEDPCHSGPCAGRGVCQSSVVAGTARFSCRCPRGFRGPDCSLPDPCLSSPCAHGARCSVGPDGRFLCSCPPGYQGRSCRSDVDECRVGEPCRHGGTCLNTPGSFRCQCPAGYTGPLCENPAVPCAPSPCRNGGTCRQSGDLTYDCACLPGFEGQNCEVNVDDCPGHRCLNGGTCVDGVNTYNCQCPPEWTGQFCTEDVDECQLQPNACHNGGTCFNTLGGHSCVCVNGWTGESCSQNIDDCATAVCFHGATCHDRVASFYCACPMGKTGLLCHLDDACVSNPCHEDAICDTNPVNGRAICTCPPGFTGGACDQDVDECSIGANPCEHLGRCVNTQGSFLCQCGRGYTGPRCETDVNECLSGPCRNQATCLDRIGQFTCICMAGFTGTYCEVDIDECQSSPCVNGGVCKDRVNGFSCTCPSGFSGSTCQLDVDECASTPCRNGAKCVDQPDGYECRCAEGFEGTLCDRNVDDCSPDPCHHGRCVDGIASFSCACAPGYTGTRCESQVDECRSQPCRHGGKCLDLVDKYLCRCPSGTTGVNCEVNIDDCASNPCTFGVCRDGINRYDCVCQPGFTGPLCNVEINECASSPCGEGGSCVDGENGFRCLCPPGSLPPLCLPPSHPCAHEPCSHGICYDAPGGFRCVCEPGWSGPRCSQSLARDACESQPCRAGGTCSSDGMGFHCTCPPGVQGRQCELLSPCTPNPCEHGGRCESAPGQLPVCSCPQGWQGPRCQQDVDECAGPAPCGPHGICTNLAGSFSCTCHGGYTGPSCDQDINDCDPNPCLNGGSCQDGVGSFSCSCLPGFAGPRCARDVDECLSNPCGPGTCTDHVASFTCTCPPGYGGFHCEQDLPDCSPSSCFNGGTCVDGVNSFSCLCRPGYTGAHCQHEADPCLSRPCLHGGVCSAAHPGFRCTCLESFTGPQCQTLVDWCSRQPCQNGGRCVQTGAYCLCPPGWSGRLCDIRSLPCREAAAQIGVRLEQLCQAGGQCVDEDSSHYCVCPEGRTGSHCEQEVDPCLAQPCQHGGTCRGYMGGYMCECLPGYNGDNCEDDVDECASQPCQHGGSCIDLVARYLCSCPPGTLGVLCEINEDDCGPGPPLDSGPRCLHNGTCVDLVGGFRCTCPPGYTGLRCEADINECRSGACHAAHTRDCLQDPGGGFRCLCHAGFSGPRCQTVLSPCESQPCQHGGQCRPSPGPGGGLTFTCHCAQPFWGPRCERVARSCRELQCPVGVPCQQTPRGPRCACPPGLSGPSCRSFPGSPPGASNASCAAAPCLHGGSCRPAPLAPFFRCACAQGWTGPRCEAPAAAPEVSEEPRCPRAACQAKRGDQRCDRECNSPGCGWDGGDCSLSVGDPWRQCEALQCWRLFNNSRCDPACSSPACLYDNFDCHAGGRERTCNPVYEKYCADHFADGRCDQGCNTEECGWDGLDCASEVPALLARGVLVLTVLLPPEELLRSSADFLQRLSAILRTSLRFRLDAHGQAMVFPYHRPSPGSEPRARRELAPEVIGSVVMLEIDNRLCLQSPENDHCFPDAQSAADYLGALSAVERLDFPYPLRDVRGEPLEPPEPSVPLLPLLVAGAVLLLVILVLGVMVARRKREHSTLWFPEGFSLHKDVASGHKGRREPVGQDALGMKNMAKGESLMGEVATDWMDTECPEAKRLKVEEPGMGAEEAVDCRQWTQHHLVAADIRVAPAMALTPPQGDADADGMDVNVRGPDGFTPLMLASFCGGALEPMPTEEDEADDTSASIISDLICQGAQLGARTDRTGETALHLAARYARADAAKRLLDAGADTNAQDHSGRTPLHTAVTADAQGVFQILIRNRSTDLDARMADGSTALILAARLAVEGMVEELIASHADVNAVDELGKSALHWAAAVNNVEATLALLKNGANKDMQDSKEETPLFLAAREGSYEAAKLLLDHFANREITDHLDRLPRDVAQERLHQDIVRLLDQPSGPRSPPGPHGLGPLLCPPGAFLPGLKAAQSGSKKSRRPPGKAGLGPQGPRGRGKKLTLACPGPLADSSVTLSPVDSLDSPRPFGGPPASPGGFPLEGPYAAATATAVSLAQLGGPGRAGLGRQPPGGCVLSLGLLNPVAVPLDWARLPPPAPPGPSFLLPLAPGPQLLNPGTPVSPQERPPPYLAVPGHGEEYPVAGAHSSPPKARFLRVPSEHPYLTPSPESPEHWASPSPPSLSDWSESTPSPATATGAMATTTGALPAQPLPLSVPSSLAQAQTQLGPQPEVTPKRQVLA
Sequence of Notch3-LD/Fc fusion protein (human Notch3 LIN12/dimerization domain fused to human gamma 1 Fc) (human) [IgG part: P01857] (P01857 other isoform, or with tags, fused parts or gaps limits assumed): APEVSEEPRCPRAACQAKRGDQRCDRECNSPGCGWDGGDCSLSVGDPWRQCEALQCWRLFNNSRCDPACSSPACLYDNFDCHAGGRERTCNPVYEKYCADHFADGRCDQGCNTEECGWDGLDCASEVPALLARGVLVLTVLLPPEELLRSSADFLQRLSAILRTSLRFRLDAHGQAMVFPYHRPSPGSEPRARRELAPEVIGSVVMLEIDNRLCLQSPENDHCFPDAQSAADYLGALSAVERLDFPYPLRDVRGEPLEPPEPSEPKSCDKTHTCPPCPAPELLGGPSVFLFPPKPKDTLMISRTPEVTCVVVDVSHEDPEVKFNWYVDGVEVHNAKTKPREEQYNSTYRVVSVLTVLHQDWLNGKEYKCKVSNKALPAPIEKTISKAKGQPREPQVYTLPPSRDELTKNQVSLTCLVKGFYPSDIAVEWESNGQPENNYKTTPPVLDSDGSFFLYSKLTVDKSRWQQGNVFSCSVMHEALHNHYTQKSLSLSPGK

| Molecule | ELISA OD reading (mean) [1] | mean fluorescent intensity [2] | mean fluorescent intensity [3] | ELISA OD reading (mean) [4] | ELISA OD reading (Notch3-D1/Fc (human)) | ELISA OD reading (Notch3-D2/Fc (human)) |
| --- | --- | --- | --- | --- | --- | --- |
| Control IgG1 MAb (antibody) | 0.063 OD | 24.5 MFI | 24.2 MFI | 0.019 OD (450 nm) |  |  |
| anti-Notch3 monoclonal antibody MAb 256A-13 (antibody, IgG1, V domains shown) VH: SQVQLQQSGAELAKPGTSVKMACKASGYTFTTHWMNWVKQRPGQGLEWIGTINPSNDFTDCNQKFKDKAILTADKSSSTAYMQLSSLTSEDSAIYYCASGLTARAWFAYWGQGTLVTVSAA VL: RATISCRASQSVTTSNYSYMHWFQQKPGQPPKLLIKYASNLDSGVPARFSGSGSGTDFTLNIHPVEEEDTATFYCQHSWEIPYTFGGGTNLEIKRADAAPTV |  |  |  |  | 0.015 OD | 0.015 OD |
